Measured values taken from patent US20210230263A1 (BIOATLA, published 2021).

T1: human IL-22 (human, UniProt Q9GZX6 34-179)
T1 sequence (looked up): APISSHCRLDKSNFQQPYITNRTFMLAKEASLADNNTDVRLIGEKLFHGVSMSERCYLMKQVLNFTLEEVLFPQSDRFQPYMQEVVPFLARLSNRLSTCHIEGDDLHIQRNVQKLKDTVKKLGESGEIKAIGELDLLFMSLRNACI

T2: mouse IL-22 (mouse, UniProt Q9JJY9 34-179)
T2 construct: also called mIL-22; mIL22
T2 sequence (looked up): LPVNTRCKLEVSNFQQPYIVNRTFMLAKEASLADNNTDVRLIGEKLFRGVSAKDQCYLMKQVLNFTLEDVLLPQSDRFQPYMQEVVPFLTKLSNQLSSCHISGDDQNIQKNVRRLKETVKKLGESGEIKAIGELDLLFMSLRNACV

T3: human IL19 (human, UniProt Q9UHD0 25-177)
T3 sequence (looked up): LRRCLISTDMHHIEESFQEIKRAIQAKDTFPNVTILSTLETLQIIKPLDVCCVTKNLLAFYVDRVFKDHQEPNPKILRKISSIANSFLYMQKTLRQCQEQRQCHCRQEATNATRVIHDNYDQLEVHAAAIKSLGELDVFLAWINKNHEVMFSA

T4: human IL20 (human, UniProt Q9NYY1 25-176)
T4 sequence (looked up): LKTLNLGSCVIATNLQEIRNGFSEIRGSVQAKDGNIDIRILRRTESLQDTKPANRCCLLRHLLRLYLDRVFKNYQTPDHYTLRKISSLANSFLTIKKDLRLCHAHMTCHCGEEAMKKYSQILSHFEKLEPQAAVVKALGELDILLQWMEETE

T5: human IL24 (human, UniProt Q13007 52-206, limits assumed)
T5 sequence (looked up): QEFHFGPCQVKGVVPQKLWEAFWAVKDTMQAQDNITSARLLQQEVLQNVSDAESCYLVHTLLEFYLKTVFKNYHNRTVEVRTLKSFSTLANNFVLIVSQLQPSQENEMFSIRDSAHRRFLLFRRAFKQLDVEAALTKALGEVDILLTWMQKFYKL

T6: human IL26 (human, UniProt Q9NPH9 22-171, limits assumed)
T6 sequence (looked up): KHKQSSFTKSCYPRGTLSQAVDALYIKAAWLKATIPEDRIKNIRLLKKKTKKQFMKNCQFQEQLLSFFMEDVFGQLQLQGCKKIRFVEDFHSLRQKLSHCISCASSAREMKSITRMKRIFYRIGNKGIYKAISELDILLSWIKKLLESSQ

T7: INF-γ (Homo sapiens (Human), UniProt P01579 24-161)
T7 sequence: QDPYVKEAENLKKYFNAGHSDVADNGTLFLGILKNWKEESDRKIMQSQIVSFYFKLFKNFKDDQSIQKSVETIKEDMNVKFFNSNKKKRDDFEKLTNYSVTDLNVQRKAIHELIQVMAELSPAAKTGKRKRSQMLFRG


Key:
human IL-22 [1] = molecular target: T1, human IL-22; assay: cell-based or functional assay
human IL-22 [2] = molecular target: T1, human IL-22; assay: affinity ELISA on hIL22, mAb concentration at 50% max signal
mouse IL-22 [3] = molecular target: T2, mouse IL-22; assay: ELISA on coated antigen (1 ug/ml), anti-hIgG-HRP, OD450;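 further: specificity check of antibodies applied at 100 ng/ml to wells bearing human or mouse IL-22, related cytokines or an unrelated control antigen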
Protocol: (§1) Plates were coated with 100 μl antigens at a concentration of 1 μg/ml. The plates were exposed to the antibodies at a concentration of 100 ng/ml. The bound antibodies were detected with anti-hIgG-HRP by the ELISA assay.

human IL19 = molecular target: T3, human IL19; assay: as above
Protocol: as §1

human IL20 = molecular target: T4, human IL20; assay: as above
Protocol: as §1

human IL24 = molecular target: T5, human IL24; assay: as above
Protocol: as §1

human IL26 = molecular target: T6, human IL26; assay: as above
Protocol: as §1

INF-γ = molecular target: T7, INF-γ; assay: as above
Protocol: as §1

INF-λ1 = INF-λ1 (Homo sapiens (Human), UniProt Q8IU54 20-200); assay: as above
INF-λ1, sequence (Q8IU54 20-200 limits assumed): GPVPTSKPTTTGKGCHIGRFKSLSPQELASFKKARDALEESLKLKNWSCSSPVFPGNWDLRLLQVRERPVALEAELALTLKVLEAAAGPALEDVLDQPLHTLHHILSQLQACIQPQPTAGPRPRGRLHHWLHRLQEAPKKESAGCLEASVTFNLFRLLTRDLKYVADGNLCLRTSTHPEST
Protocol: as §1

mouse IL-22 [4] = molecular target: T2, mouse IL-22; assay: cell-based or functional assay
[5] = molecular target: IL-22 (CXCL1 assay in HT29 cells); assay: cell-based or functional assay
[6] = molecular target: IL-22 (CXCL1 assay in HT29 cells); assay: cell-based or functional assay; remark: listed apart in the source
mouse IL-22 [7] = molecular target: T2, mouse IL-22; assay: affinity ELISA on mIL22, mAb concentration at 50% max signal
human IL-22 [8] = molecular target: T1, human IL-22; assay: affinity ELISA on hIL22, mAb concentration at 50% max signal (second row of the same name)
mouse IL-22 [9] = molecular target: T2, mouse IL-22; assay: affinity ELISA on mIL22, mAb concentration at 50% max signal (second row of the same name)
human IL-22 [10] = molecular target: T1, human IL-22; assay: SPR (SierraSensors SPR-2), hIL-22 immobilized on chip, antibody injected, Langmuir 1:1 model
Protocol: (§2) The affinity of the 10 antibodies of Table 1 was measured by Surface Plasma Resonance (SPR) using a capture assay on a SPR-2 instrument (SierraSensiors, Hamburg, Germany). The antigens hIL-22 and mIL-22 were immobilized on chips. The running buffer for the assay contained 10 mM HEPES with a pH of 7.4, 500 mM NaCl, and 0.05% TWEEN® 20. […] The off-rate was measured for 6 minutes. Binding constants were calculated using the curve fitting software Analyzer2 (Sierra Sensors). Sensorgrams were analyzed with the instrument specific software and with BIAevaluation 4.1 software. The binding data were analyzed using the Langmuir 1:1 model (human IL-22) or a model for a heterogeneous ligand (mouse IL-220).

mouse IL-22 [11] = molecular target: T2, mouse IL-22; assay: SPR (SierraSensors SPR-2), mIL-22 immobilized on chip, antibody injected, heterogeneous ligand model
Protocol: as §2

| STAT3 Phosphorylation; hIL22 % inhibition mAb [0.73 nM] (human IL-22 [1]) | EC50 (human IL-22 [2]) | binding result (human IL19) | binding result (human IL20) | binding result (human IL24) | binding result (human IL26) | binding result (INF-γ) | binding result (INF-λ1) | Acute Phase response 5 µg mIL22 and 5 µg mAb (% signal reduction), molar ratio mIL22: mAb = 4.5:1 (serum amyloid in mice) (mouse IL-22 [4]) | CXCL-1 Assay (IC50 [pM]) double data points 02122015 [5] | CXCL-1 Assay (IC50 [pM]) single data points 02052015 [5] | IC50 (parameter C of the log-logit fit y=(A-D)/(1+(x/C)^B)+D) of inhibition of IL-22-induced CXCL1 production in HT29 cells [6] | EC50 (mouse IL-22 [7]) | EC50 (human IL-22 [8]) | EC50 (mouse IL-22 [9]) | Kd (human IL-22 [10]) | koff (human IL-22 [10]) | Kd (mouse IL-22 [11]) | koff (mouse IL-22 [11]) | Binder | other results |
| --- | --- | --- | --- | --- | --- | --- | --- | --- | --- | --- | --- | --- | --- | --- | --- | --- | --- | --- | --- | --- |
| 7% | 2.22 nM | no binding (tested: 100 ng/ml) | no binding (tested: 100 ng/ml) | no binding (tested: 100 ng/ml) | no binding (tested: 100 ng/ml) | no binding (tested: 100 ng/ml) | no binding (tested: 100 ng/ml) |  |  |  |  |  |  |  |  |  |  |  | hum10 (antibody, V domains shown, Humanized monoclonal antibody derived from murine 3C3; also called parent antibody hum10; humanized 3C3) VH: QVQLVQSGAEVKKPGASVKVSCKASGYIFTSYWIHWIRQPPGKGLEWIGRIYPGTGNTYYNEKFKGRVTISADKSISTAYLQWSSLKASDTAMYYCARSYDSSCAYWGQGTLVTVSS VL: AIQLTQSPSSLSASVGDRVTITCSASSSVSYMHWYLQKPGQSPQLLIYETSKLASGVPSRFSGSGSGTDFTFTISSLEAEDAATYYCQQWSSNPYITFGQGTKVEIKR | binding result (mouse IL-22 [3]): no binding (tested: 100 ng/ml) |
| 33.8% | 0.027 nM | no binding (tested: 100 ng/ml) | no binding (tested: 100 ng/ml) | no binding (tested: 100 ng/ml) | no binding (tested: 100 ng/ml) | no binding (tested: 100 ng/ml) | no binding (tested: 100 ng/ml) | 81% | 131 pM | 197 pM | 29.5 ng/ml | 0.042 nM | 0.054 nM | 0.019 nM | 0.025 nM | 4.67e-05 s⁻¹ | 3.28 nM | 0.000545 s⁻¹ | CPS-02 (antibody, V domains shown, Mutant of humanized hum10, whole antibody expressed in CHO cells; also called CPS-hit-02; CSP02) VH: QVQLVQSGAEVKKPGASVKVSCKASGYIFRSYWIHWIRQPPGKGLEWIGRIYPGTGRTYYNEKFKGRVTISADKSISTAYLQWSSLKASDTAMYYCARSYDSSVAYWGQGTLVTVSS VL: AIQLTQSPSSLSASVGDRVTITCSASSSVSYMHWYLQKPGQSPQLLIYKTRKLASGVPSRFSGSGSGTDFTFTISSLEAEDAATYYCQQWSSNPYITFGQGTKVEIKR |  |
| 12.1% | 0.081 nM |  |  |  |  |  |  | 73% | 204 pM | 411 pM | 61.6 ng/ml | 0.141 nM | 0.074 nM | 0.034 nM | 0.0253 nM | 2.18e-05 s⁻¹ | 3.96 nM | 0.000768 s⁻¹ | CPS-09 (antibody, V domains shown, Mutant of humanized hum10, whole antibody expressed in CHO cells; also called CPS-hit-09; CSP09) VH: QVQLVQSGAEVKKPGASVKVSCKASGYIFRSYWIHWIRQPPGKGLEWIGRIYPGTGRTYYNEKFKGRVTISADKSISTAYLQWSSLKASDTAMYYCARSYDYSVAYWGQGTLVTVSS VL: AIQLTQSPSSLSASVGDRVTITCSASSSVSYMHWYLQKPGQSPQLLIYETRKLASGVPSRFSGSGSGTDFTFTISSLEAEDAATYYCQQWSSNPYITFGQGTKVEIKR | Acute Phase response 5 µg mIL22 and 50 µg mAb (% signal reduction), molar ratio of mIL22:mAb = 1:2.2 (serum amyloid in mice) (mouse IL-22 [4]): 42% |
